Measurements reported in doi:10.1101/2025.01.09.632086 (2025).

Legend:
Experiment in all cases: ITC
IscU Y11A = IscU Y11A (E. coli, UniProt P0ACD4 1-128, Y11A)
IscU I8K = IscU I8K (E. coli, UniProt P0ACD4 1-128, I8K)
IscU R15A = IscU R15A (E. coli, UniProt P0ACD4 1-128, R15A)

B1: HscA (natural protein)
chain: MALLQISEPGLSAAPHQRRLAAGIDLGTTNSLVATVRSGQAETLADHEGRHLLPSVVHYQQQGHSVGYDARTNAALDTANTISSVKRLMGRSLADIQQRYPHLPYQFQASENGLPMIETAAGLLNPVRVSADILKALAARATEALAGELDGVVITVPAYFDDAQRQGTKDAARLAGLHVLRLLNEPTAAAIAYGLDSGQEGVIAVYDLGGGTFDISILRLSRGVFEVLATGGDSALGGDDFDHLLADYIREQAGIPDRSDNRVQRELLDAAIAAKIALSDADSVTVNVAGWQGEISREQFNELIAPLVKRTLLACRRALKDAGVEADEVLEVVMVGGSTRVPLVRERVGEFFGRPPLTSIDPDKVVAIGAAIQADILVGNKPDSEMLLLDVIPLSLGLETMGGLVEKVIPRNTTIPVARAQDFTTFKDGQTAMSIHVMQGERELVQDCRSLARFALRGIPALPAGGAHIRVTFQVDADGLLSVTAMEKSTGVEASIQVKPSYGLTDSEIASMIKDSMSYAEQDVKARMLAEQKVEAARVLESLHGALAADAALLSAAERQVIDDAAAHLSEVAQGDDVDAIEQAIKNVDKQTQDFAARRMDQSVRRALKGHSVDEV
Kd (IscU Y11A): 2700 nM
Kd (IscU I8K): 18200 nM
Kd (IscU R15A): 2400 nM
